Target: T1, 鼠疫耶尔森菌抗原F1 (重组F1蛋白) (Yersinia pestis, UniProt P26948 22-170)
T1 construct: also called F1抗原; 鼠疫抗原F1
Test: immunological detection (免疫学检测)

T1 sequence (P26948 22-170 limits assumed): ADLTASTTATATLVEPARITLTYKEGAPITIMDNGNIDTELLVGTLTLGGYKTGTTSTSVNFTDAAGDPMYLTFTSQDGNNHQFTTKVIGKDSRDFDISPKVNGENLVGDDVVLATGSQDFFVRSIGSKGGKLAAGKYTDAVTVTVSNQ

B1: 人鼠嵌合单克隆抗体 hm YF202 (antibody, V domains shown)
VH: ESGPDLVKPSQSLSLTCTVTGYSITSGYSWHWIRQFPGNKLEWMGYIHYSGSTNYNPSLKSRISITRDTSKNQFFLQLNSVTTEDTATYYCARNYAMDYWGQGTLVTVS
VL: DIVMTQSPKFMSTSVGDRVSVTCKASQNVGTNVAWYQQKPGQSPKALIYSASYRYSGVPDRFTGSGSGTDFTLTISNVQSEDLAEYFCQQYNSYPYTFGGGTKLEIKR
notes: also called 抗F1的人鼠嵌合单克隆抗体
- binding result: binds

From patent publication CN111690061A (EASTERN THEATER COMMAND DISEASE CONTROL AND PREVENTION …, dated 2020)
